Source: US20080032340A1 (UNIVERSITY OF ARIZONA, published 2008)
Bridges are numbered along the chain shown (N, C = ends). Where no end group is shown, it is not given here.

B1: cyclized CDLASPWCG (SEQ ID NO: 5) (peptide)
peptide: CDLASPWCG-NH2
modifications: disulfide 1-8; N-terminus assumed
SMILES: CC(C)C[C@@H]1NC(=O)[C@H](CC(=O)O)NC(=O)[C@@H](N)CSSC[C@@H](C(=O)NCC(N)=O)NC(=O)[C@H](Cc2c[nH]c3ccccc23)NC(=O)[C@@H]2CCCN2C(=O)[C@H](CO)NC(=O)[C@H](C)NC1=O
notes: Synthetic peptide from Fmoc synthesis on RinkAmide resin, oxidised in PBS with 10% DMSO; also called cyclic DLASPW peptide
B2: uncyclized CDRASPYCG (SEQ ID NO: 7) (peptide)
peptide: CDRASPYCG-NH2
modifications: cysteine pairing not given here
notes: Same peptide as m1, used as the linear form; also called linear DRASPY peptide; acyclic counterpart
B3: cyclized CDRASPYCG (SEQ ID NO: 7) (peptide)
peptide: CDRASPYCG-NH2
modifications: disulfide 1-8; N-terminus assumed
SMILES: C[C@@H]1NC(=O)[C@H](CCCNC(=N)N)NC(=O)[C@H](CC(=O)O)NC(=O)[C@@H](N)CSSC[C@@H](C(=O)NCC(N)=O)NC(=O)[C@H](Cc2ccc(O)cc2)NC(=O)[C@@H]2CCCN2C(=O)[C@H](CO)NC1=O
notes: Synthetic peptide from Fmoc synthesis on RinkAmide resin, oxidised in PBS with 10% DMSO; also called cyclic DRASPY peptide
B4: cyclized CDRATPYCG (SEQ ID NO: 9) (peptide)
peptide: CDRATPYCG-NH2
modifications: disulfide 1-8; N-terminus assumed
SMILES: C[C@@H]1NC(=O)[C@H](CCCNC(=N)N)NC(=O)[C@H](CC(=O)O)NC(=O)[C@@H](N)CSSC[C@@H](C(=O)NCC(N)=O)NC(=O)[C@H](Cc2ccc(O)cc2)NC(=O)[C@@H]2CCCN2C(=O)[C@H]([C@@H](C)O)NC1=O
notes: Synthetic peptide from Fmoc synthesis on RinkAmide resin, oxidised in PBS with 10% DMSO; also called cyclic DRATPY peptide
B5: uncyclized CDRATPYCG (SEQ ID NO: 9) (peptide)
peptide: CDRATPYCG-NH2
modifications: cysteine pairing not given here
notes: Same peptide as m2, used as the linear form; also called linear DRATPY peptide; acyclic counterpart

Experiments:
streptavidin = molecular target: T1, streptavidin (UniProt P22629 37-163, limits assumed); test: HABA competition, 50 µM HABA-streptavidin complex, absorbance at 500 nm
T1 construct: Bought from Pierce; Used free in solution in the HABA assay and immobilized on agarose resin in the fusion protein experiments; also called agarose immobilized streptavidin
Description: (§1) FIG. 1: Competitive ligand binding analysis of […] Error bars indicate the standard deviation of three separate assays.
After 60 minutes, the absorbance of the complex was monitored at 500 nm. To calculate the IC₅₀s of the selected peptides, the average of three separate trials were fitted to the Hill equation, […]

avidin = molecular target: T2, avidin (hen egg white (chicken), UniProt P02701 25-152, glycosylated native state); test: HABA competition, 50 µM HABA-avidin complex, absorbance at 500 nm, IC50 converted by Cheng-Prusoff
T2 construct: Bought from Pierce; also called glycosylated parent of NeutrAvidin
Description: (§2) After 60 minutes, the absorbance of the complex was monitored at 500 nm. To calculate the IC₅₀s of the selected peptides, the average of three separate trials were fitted to the Hill equation,
(§3) Best fit equations were calculated using KaleidaGraph (Synergy Software).

NeutrAvidin [1] = molecular target: T3, NeutrAvidin (UniProt P02701 25-152, chemically deglycosylated and chemically modified to a more neutral isoelectric point (pI=6.3)); test: HABA competition, 50 µM HABA-NeutrAvidin complex, absorbance at 500 nm, IC50 converted by Cheng-Prusoff
T3 construct: Bought from Pierce; also called NA; deglycosylated avidin
Description: as §2, §3

NeutrAvidin [2] = molecular target: T3, NeutrAvidin; test: HABA competition, uncyclized peptides (the filing cites 'FIG. 3B'; FIG. 1B holds these curves)
Description: as §1, §2, §3

Row | Binder | Kd (streptavidin) [µM] | Kd (avidin) [µM] | Kd (NeutrAvidin [1]) [µM] | Kd (NeutrAvidin [2]) [µM]
1 | B1 | > 5000 | 46.2 | 62.8 | 
2 | B2 |  |  |  | < 500
3 | B3 | > 5000 | 44.9 | 31.5 | 
4 | B4 | > 5000 | 28.1 | 12.5 | 
5 | B5 |  |  |  | < 500
